Results from US12319739 (F STAR DELTA, dated 2025).

Experiments:
[1] = molecular target: T1, endogenous cell surface human MSLN (human, UniProt Q13421 296-598); assay: flow cytometry, AsPC-1 cells
T1 construct: whole, on cells; The cell line is named under assay; also called cell-surface MSLN on NCI-H226, OVCAR-3 and AsPC-1 cells

cMSLN-His-Avi [2] = molecular target: T2, cMSLN-His-Avi (cynomolgus, single biotin on the Avi tag in the biotinylated form); assay: SPR steady state, antigen immobilised ~50 RU
T2 construct: Monomeric; also called cyno MSLN-His-Avi; cMSLN-Avi-His
T2 chain: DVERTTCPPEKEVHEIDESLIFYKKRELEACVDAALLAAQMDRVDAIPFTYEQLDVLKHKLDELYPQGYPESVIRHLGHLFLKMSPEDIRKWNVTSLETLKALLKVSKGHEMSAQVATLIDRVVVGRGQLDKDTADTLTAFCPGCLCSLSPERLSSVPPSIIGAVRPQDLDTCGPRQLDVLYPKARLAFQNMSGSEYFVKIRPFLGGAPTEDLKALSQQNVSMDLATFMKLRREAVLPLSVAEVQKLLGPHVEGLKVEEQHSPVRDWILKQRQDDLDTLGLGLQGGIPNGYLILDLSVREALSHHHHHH
Procedure: The association time was 1000 sec to steady state and the dissociation time was 30 sec. Running buffer was HBS-EP (GE Healthcare BR100188). Flow cells were regenerated by injecting Glycine-HCl pH1.5 at a flow rate of 30 μl/min for 30 seconds. Data were analysed by double referencing against a flow cell which was intentionally left blank (no antigen coating). Steady state affinity model was used to analyse kinetic data using the BiaEvaluation software version 3.2.

[3] = molecular target: T1, endogenous cell surface human MSLN; assay: flow cytometry, NCI-H226 cells
hMSLN-His-Avi [4] = molecular target: T3, hMSLN-His-Avi (human, UniProt Q13421 296-598, single biotin on the Avi tag in the biotinylated form); assay: SPR, hMSLN-His-Avi immobilised
T3 construct: Monomeric; also called human MSLN-His-Avi; hMSLN-Avi-His

hMSLN-His-Avi [5] = molecular target: T3, hMSLN-His-Avi; assay: SPR, hMSLN-His-Avi in solution
hMSLN-His-Avi [6] = molecular target: T3, hMSLN-His-Avi; assay: SPR, mAb2 captured on Protein G, hMSLN-His-Avi in solution
Procedure: (§1) The association time was 5 min and the dissociation time was 5 min. Running buffer was HBS-EP (GE Healthcare BR100188). Flow cells were regenerated by injecting Glycine-HCl pH2.1 at a flow rate of 30 μl/min for 15 seconds. The data was analysed as described in Example 7.1.

[7] = molecular target: T4, human CD137 on primary human CD8+ T cells (human, UniProt Q07011 24-255); assay: cell-based or functional assay
[8] = molecular target: T4, human CD137 on primary human CD8+ T …; assay: cell-based or functional assay; remark: listed apart in the source
hMSLN-His-Avi [9] = molecular target: T3, hMSLN-His-Avi; assay: ratio of SPR KDs
[10] = molecular target: T4, human CD137 on primary human CD8+ T …; assay: cell-based or functional assay; remark: listed apart in the source
[11] = molecular target: T1, endogenous cell surface human MSLN; assay: flow cytometry, OVCAR-3 cells
hCD137-mFc-Avi = molecular target: T5, hCD137-mFc-Avi (human; mouse, UniProt Q07011 24-186, one biotin on each Avi tag in the biotinylated form); assay: SPR, mAb2 captured by anti-human Fab, hCD137-mFc-Avi in solution
T5 construct: also called human dimeric CD137; human CD137-mFc-Avi
Procedure: A Biacore CM5 chip was coated with anti-human Fab using a Human Fab Capture Kit (GE Healthcare 28958325) according to manufacturer's conditions, to a surface density of approximately 9000 RU. […] The association time was 5 min and the dissociation time was 5 min. Running buffer was HBS-EP. Flow cells were regenerated by injecting two repeat injections of 10 mM glycine-HCl at pH 2.1 at a flow rate of 30 μl/min for 30 seconds. Data analysis was performed as described in earlier examples (see e.g. Example 7.1).

hMSLN-His-Avi [12] = molecular target: T3, hMSLN-His-Avi; assay: ratio of SPR KDs; remark: listed apart in the source
hMSLN-His-Avi [13] = molecular target: T3, hMSLN-His-Avi; assay: SPR, hMSLN-His-Avi immobilised ~100 RU, mAb2 injected; immobilised human MSLN (antigen capture), not MSLN in solution
Procedure: 7.1 Binding of CD137/MSLN mAb2 to Human MSLN Under Avid Conditions—Antigen Capture Method Binding of all mAb^2 to MSLN immobilised on a BIAcore chip was tested to determine the binding affinity to human MSLN under avid conditions, where a high concentration of immobilised antigen is available to allow the antibody to bind avidly. […] The association time was 5 min and the dissociation time was 10 min. Running buffer was HBS-EP (GE Healthcare BR100188). Flow cells were regenerated by injecting Glycine-HCl pH1.5 at a flow rate of 30 μl/min for 30 seconds. Data were analysed by double referencing against a flow cell which was intentionally left blank (no antigen coating). The binding kinetics were fitted with a 1:1 Langmuir model to generate binding association (k_a) and dissociation (k_d) rates. Equilibrium binding constants (K_D) were calculated by dividing the dissociation rate by the association rate for each sample. Data analysis was performed with BiaEvaluation software version 3.2.

human E-Cadherin = molecular target: T6, human E-Cadherin (human, UniProt P12830 155-707); assay: ELISA, antigen coated 1 µg/ml
T6 sequence (looked up): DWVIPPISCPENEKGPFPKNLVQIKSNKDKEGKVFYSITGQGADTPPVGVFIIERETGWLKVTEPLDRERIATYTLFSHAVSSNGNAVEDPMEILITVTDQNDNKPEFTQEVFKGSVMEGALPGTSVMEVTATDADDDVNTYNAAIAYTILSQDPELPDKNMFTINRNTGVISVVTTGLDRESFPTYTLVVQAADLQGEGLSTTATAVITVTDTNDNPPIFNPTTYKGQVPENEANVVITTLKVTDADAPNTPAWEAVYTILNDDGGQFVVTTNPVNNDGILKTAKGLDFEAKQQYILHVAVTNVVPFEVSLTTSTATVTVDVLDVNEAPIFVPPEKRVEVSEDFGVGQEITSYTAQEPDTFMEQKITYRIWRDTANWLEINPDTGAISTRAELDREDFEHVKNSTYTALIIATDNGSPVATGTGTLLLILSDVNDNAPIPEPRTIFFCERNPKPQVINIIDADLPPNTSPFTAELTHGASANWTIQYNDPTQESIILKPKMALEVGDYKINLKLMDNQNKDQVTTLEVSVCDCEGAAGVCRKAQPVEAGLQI
Procedure: (§2) Binding of the anti-MSLN mAbs, tested at a concentration range of 0.02 to 1000 nM (3-fold dilutions) was detected using anti-human Fab-HRP (Sigma, A0293).

human CEACAM-5-His-Fc = molecular target: T7, human CEACAM-5-His-Fc (human, UniProt P06731 35-685); assay: ELISA, antigen coated 1 µg/ml
T7 sequence (looked up): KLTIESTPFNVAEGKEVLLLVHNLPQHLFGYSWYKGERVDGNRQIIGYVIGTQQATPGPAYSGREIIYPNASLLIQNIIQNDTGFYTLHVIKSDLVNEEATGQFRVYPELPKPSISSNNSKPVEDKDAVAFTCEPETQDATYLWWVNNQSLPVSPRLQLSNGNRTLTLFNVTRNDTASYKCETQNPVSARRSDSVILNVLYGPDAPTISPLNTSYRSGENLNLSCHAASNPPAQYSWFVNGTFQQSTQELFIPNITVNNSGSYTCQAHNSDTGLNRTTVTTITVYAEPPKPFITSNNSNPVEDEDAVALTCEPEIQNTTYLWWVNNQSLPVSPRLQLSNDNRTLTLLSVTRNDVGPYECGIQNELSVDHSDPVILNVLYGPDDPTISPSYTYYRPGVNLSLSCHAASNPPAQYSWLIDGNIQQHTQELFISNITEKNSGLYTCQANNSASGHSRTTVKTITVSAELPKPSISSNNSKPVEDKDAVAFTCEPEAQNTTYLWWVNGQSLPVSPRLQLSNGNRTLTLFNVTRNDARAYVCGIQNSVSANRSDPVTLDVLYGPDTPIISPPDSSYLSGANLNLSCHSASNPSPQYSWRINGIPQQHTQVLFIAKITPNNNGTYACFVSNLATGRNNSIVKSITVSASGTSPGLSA
Procedure: as §2

human Thrombomodulin = human Thrombomodulin (human, UniProt P07204 19-515, limits assumed); assay: ELISA, antigen coated 1 µg/ml
Procedure: as §2

human EpCAM-hFc = molecular target: T8, human EpCAM-hFc (human, UniProt P16422 24-265, limits assumed); assay: ELISA, antigen coated 1 µg/ml
T8 sequence (looked up): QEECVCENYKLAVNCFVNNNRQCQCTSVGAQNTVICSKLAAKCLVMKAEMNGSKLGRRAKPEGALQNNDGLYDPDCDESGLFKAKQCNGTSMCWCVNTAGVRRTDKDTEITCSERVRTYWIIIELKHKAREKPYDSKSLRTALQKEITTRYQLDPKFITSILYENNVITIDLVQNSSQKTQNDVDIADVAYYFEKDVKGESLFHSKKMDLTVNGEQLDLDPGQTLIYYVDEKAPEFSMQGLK
Procedure: as §2

hMSLN-His-Avi [14] = molecular target: T3, hMSLN-His-Avi; assay: SPR, hMSLN-His-Avi immobilised at 50 RU
hMSLN-His-Avi [15] = molecular target: T3, hMSLN-His-Avi; assay: SPR, hMSLN-His-Avi immobilised at 100 RU
hMSLN-His-Avi [16] = molecular target: T3, hMSLN-His-Avi; assay: ELISA, hMSLN-His-Avi coated 1 µg/ml
cMSLN-His-Avi [17] = molecular target: T2, cMSLN-His-Avi; assay: SPR
Procedure: as §1

T1 sequence (Q13421 other isoform, or with tags, fused parts or gaps limits assumed): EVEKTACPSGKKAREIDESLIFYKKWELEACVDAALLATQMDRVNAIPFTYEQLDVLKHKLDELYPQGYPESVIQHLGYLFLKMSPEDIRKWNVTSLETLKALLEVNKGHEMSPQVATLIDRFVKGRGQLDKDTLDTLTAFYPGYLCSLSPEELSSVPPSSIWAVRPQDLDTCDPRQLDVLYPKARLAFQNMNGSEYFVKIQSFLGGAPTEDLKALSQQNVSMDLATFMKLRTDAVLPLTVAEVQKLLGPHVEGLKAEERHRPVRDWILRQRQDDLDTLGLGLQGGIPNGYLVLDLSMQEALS
T4 sequence (Q07011 24-255): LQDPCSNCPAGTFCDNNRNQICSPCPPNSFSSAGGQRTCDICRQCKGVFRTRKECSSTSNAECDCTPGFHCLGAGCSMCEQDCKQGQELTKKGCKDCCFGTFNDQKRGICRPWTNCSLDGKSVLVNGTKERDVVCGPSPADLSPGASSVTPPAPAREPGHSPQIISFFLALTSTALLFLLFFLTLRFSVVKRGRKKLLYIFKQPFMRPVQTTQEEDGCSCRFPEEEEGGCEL
T3 sequence (Q13421 other isoform, or with tags, fused parts or gaps): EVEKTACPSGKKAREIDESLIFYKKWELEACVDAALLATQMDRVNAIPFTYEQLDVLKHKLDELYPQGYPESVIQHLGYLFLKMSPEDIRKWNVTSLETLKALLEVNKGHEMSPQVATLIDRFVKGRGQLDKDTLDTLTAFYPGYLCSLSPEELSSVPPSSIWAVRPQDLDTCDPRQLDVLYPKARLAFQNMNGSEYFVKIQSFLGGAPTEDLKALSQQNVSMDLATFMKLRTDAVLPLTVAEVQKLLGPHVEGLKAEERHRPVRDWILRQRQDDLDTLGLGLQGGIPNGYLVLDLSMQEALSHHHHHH
human Thrombomodulin, sequence (P07204 19-515 limits assumed): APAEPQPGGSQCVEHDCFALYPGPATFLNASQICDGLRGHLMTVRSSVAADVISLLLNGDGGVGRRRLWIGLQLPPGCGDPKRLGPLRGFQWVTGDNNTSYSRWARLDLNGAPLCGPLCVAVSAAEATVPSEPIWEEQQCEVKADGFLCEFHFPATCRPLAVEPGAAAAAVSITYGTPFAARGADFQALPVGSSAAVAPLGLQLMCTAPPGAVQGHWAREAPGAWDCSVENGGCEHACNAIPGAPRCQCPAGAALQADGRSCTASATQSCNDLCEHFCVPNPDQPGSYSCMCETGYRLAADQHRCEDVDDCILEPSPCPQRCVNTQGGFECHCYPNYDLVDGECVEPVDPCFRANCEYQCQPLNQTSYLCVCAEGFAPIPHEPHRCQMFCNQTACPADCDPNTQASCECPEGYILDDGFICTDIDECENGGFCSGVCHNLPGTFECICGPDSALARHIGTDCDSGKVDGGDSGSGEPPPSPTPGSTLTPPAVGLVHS
T5 sequence (Q07011 24-186): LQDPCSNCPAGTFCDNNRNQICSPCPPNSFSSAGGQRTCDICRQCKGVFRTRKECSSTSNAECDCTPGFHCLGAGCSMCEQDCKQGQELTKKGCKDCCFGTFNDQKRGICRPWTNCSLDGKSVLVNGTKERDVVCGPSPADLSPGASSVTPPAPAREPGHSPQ

B1: FS22-172-003-AA/FS28-256-271 (bispecific antibody, human IgG1, kappa, L234A L235A, V domains shown)
VH: EVQLLESGGGLVQPGGSLRLSCAASGFTFTHTYMSWVRQAPGKGLEWVSAISPTYSTTNYADSVKGRFTISRDNNKNTLYLQMNSLRAEDTAVYYCARYNAYHAALDYWGQGTLVTVSS
VL: EIVLTQSPGTLSLSPGERATLSCRASQSVSSSYLAWYQQKPGQAPRLLIYGASSRATGIPDRFSGSGSGTDFTLTISRLEPEDFAVYYCQQTVPYPYTFGQGTKVEIKR
notes: IgG1 mAb^2 with LALA; also called anti-human CD137/MSLN mAb^2
[1]
  EC50: 0.293 nM
cMSLN-His-Avi [2]
  fold difference of binding to cMSLN against hMSLN: ≤ 3 fold
[3]
  EC50: 0.304 nM
hMSLN-His-Avi [4]
  Kd: 5.9 nM
hMSLN-His-Avi [5]
  Kd: 18.2 nM
hMSLN-His-Avi [6]
  Kd: 18.2 nM
[7]
  IFNγ production EC50 (96 h), AsPC-1 co-culture, Donor G: 0.147 nM
  IFNγ production EC50 (96 h), AsPC-1 co-culture, Donor H: 0.164 nM
  IFNγ production EC50 (96 h), AsPC-1 co-culture, Donor J: 0.344 nM
  IFNγ production EC50 (96 h), NCI-H226 co-culture, Donor G: 0.0332 nM
  IFNγ production EC50 (96 h), NCI-H226 co-culture, Donor H: 0.0732 nM
  IFNγ production EC50 (96 h), OVCAR-3 co-culture, Donor H: 0.084 nM
  IL-2 production EC50 (72 h), AsPC-1 co-culture, Donor C: 0.778 nM
  IL-2 production EC50 (72 h), AsPC-1 co-culture, Donor D: 0.841 nM
  IL-2 production EC50 (72 h), NCI-H226 co-culture, Donor C: 0.111 nM
  IL-2 production EC50 (72 h), NCI-H226 co-culture, Donor D: 0.112 nM
  IL-2 production EC50 (72 h), NCI-H226 co-culture, Donor E: 0.0722 nM
  IL-2 production EC50 (72 h), NCI-H226 co-culture, Donor F: 0.0723 nM
  IL-2 production EC50 (72 h), OVCAR-3 co-culture, Donor E: 0.145 nM
  IL-2 production EC50 (72 h), OVCAR-3 co-culture, Donor F: 0.0693 nM
[8]
  fold change of IL-2 EC50 with soluble MSLN against none, NCI-H226 co-culture: 3 fold
hMSLN-His-Avi [9]
  KD ratio in solution/immobilised human MSLN: 3
[10]
  IL-2 release EC50, NCI-H226 co-culture, +2 nM sMSLN: 0.139 nM
  IL-2 release EC50, NCI-H226 co-culture, +20 nM sMSLN: 0.353 nM
  IL-2 release EC50, NCI-H226 co-culture, no sMSLN: 0.117 nM
[11]
  EC50: 0.306 nM
hCD137-mFc-Avi
  Kd: 1.26 nM
hMSLN-His-Avi [12]
  ratio of KD in solution/immobilised: 3
hMSLN-His-Avi [13]
  Kd: 5.9 nM

B2: FS28-024 (mAb in G1-AA format) (antibody, human IgG1, V domains shown)
VH: EVQLLESGGGLVQPGGSLRLSCAASGFTLSYSSMSWVRQAPGKGLEWVSFITPSTGYTHYADSVKGRFTISRDNSKNTLYLQMNSLRAEDTAVYYCARRALTFDYWGQGTLVTVSS
VL: EIVLTQSPGTLSLSPGERATLSCRASQSVSSSYLAWYQQKPGQAPRLLIYGASSRATGIPDRFSGSGSGTDFTLTISRLEPEDFAVYYCQQASSYPLTFGQGTKVEIK
Human E-Cadherin
  binding result: no binding (tested: 1000 nM)
Human CEACAM-5-His-Fc
  binding result: no binding (tested: 1000 nM)
Human Thrombomodulin
  binding result: no binding (tested: 1000 nM)
Human EpCAM-hFc
  binding result: no binding (tested: 1000 nM)
hMSLN-His-Avi [14]
  Kd: 0.77 nM
hMSLN-His-Avi [15]
  Kd: 0.23 nM
hMSLN-His-Avi [16]
  EC50: ~0.5 nM
  maximum binding signal: 3
cMSLN-His-Avi [17]
  fold lower affinity for cyno MSLN than for human MSLN: ~5 fold
